B1: recombinant FcγRIIa ligand binding domain, 6xHis tagged (receptor)
chain: QAAAPPKAVLKLEPPWINVLQEDSVTLTCQGARSPESDSIQWFHNGNLIPTHTQPSYRFKANNNDSGEYTCQTGQTSLSDPVHLTVLSEWLVLQTPHLEFQEGETIMLRCHSWKDKPLVKVTFFQNGKSQKFSHLDPTFSIPQANHSHSGDYHCTGNIGYTLFSSKPVTITVQVPSMGSSSPMG
B2: recombinant FcγRIIb ligand binding domain, 6xHis tagged (receptor)
chain: TPAAPPKAVLKLEPQWINVLQEDSVTLTCRGTHSPESDSIQWFHNGNLIPTHTQPSYRFKANNNDSGEYTCQTGQTSLSDPVHLTVLSEWLVLQTPHLEFQEGETIVLRCHSWKDKPLVKVTFFQNGKSKKFSRSDPNFSIPQANHSHSGDYHCTGNIGYTLYSSKPVTITVQAP
B3: recombinant FcγRI ligand binding domain, 6xHis tagged (receptor)
chain: QVDTTKAVITLQPPWVSVFQEETVTLHCEVLHLPGSSSTQWFLNGTATQTSTPSYRITSASVNDSGEYRCQRGLSGRSDPIQLEIHRGWLLLQVSSRVFTEGEPLALRCHAWKDKLVYNVLYYRNGKAFKFFHWNSNLTILKTNISHNGTYHCSGMGKHRYTSAGISVTVKELFPAPVLNASVTSPLLEGNLVTLSCETKLLLQRPGLQLYFSFYMGSKTLRGRNTSSEYQILTARREDSGLYWCEAATEDGNVLKRSPELELQVLGLQLPTPVWFH

How the values were obtained:
[1] = target: T1, HSA1Fc (human, UniProt P02768 25-221); assay: ELISA on coated recombinant receptor, Protein G-HRPO detection
T1 construct: range 1-197; also called Fc fusion protein; Ig fusion protein
T1 sequence (P02768 other isoform, or with tags, fused parts or gaps): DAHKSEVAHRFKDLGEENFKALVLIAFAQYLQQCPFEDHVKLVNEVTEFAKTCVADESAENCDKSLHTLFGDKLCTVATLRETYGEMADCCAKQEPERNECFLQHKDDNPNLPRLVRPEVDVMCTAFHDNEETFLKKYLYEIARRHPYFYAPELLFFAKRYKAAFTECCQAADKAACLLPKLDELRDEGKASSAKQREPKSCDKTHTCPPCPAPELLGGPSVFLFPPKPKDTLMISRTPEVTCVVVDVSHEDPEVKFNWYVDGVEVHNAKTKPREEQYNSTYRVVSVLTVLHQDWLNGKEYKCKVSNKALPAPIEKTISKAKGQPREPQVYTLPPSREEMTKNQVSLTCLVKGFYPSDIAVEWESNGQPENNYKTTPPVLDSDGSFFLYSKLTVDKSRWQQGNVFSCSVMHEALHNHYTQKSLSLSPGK

[2] = target: T2, HSA1R4 (human, UniProt P02768 25-221); assay: ELISA on coated recombinant receptor (4 µg/mL), HRPO-Protein G detection
T2 construct: range 1-197; also called R4 ligand; HCH2 polymer
T2 sequence (P02768 other isoform, or with tags, fused parts or gaps): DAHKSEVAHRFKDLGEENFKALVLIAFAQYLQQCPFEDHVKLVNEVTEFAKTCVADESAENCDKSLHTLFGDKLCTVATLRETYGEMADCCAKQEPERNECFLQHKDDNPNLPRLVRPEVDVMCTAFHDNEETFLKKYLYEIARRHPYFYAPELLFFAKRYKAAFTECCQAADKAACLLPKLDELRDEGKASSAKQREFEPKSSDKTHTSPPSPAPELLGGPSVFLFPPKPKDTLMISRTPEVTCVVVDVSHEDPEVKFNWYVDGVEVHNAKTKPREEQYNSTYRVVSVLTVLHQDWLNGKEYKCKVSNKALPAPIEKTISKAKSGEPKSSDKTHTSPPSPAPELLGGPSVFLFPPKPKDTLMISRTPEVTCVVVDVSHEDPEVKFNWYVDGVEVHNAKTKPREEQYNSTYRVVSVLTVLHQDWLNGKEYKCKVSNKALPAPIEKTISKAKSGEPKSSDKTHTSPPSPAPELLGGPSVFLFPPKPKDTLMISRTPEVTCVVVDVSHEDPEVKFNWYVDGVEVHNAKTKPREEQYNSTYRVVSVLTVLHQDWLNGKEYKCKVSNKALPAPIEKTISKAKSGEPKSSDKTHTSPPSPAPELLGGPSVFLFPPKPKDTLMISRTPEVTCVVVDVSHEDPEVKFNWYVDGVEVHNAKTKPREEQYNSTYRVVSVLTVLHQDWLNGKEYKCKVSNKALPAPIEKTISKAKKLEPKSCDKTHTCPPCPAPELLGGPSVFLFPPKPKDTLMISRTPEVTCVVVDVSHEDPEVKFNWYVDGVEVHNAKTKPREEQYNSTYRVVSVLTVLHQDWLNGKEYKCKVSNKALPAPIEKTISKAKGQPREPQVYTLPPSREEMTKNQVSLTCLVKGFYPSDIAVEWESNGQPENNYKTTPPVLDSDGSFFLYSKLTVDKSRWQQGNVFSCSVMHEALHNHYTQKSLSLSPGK

[3] = target: T2, HSA1R4; assay: ELISA on coated recombinant receptor (2 µg/mL), HRPO-Protein G detection

Row | Binder | binding result [1] | binding result [2] | binding result [3]
1 | B1 | no binding (tested: 20 ug/mL (highest concentration tested)) |  | 
2 | B2 | no binding (tested: 20 ug/mL (highest concentration tested)) | binds | 
3 | B3 | binds |  | binds
